Test results published in FireProtDB (doi:10.1021/bi034721x).
“And” between values parts separate entries of the source, which are not always exact repeats. Equal values may be shown once.

B1: Parvalbumin alpha, P02625 (parent)
chain: MSMTDLLSAEDIKKAIGAFTAADSFDHKKFFQMVGLKKKSADDVKKVFHILDKDKSGFIEEDELGSILKGFSSDARDLSAKETKTLMAAGDKDGDGKIGVEEFSTLVAES

Variants of: B1
Details: Rattus norvegicus, pH 7.4, Thermal, DSC, sodium phosphate 10 mM, NaCl 0.20 M, structure 1RTP, whole UniProt chain shown

Row | Variant | ddG of mutation (higher = less stable) (45.8 °C) [kcal/mol] | heat capacity change of unfolding (45.8 °C) [kcal/mol/K] | Tm [°C] | change of melting temperature, mutant - wild type (higher = more stable) [°C] | unfolding enthalpy (calorimetric) | ddG of mutation (higher = less stable) (44.2 °C) [kcal/mol] | heat capacity change of unfolding (44.2 °C) [kcal/mol/K]
1 | A22P K81S | -0.45 | 1.4 | 47.8 | 2 | 75 kcal/mol | – | –
2 | H27P | -1.25 | 1.4 | 51.4 | 5.6 | 80 kcal/mol | – | –
3 | K81S | 0.29 | 1.4 | 44.5 | -1.3 | 71 kcal/mol | – | –
4 | A22P H27P | 0.5 | 1.4 | 43.6 | -2.2 | 62 kcal/mol | – | –
5 | A22P | 1.92 | 1.4 | – | – | 52 kcal/mol and 63 kcal/mol | -0.95 | 1.4
